# Measurements: US20090131312A1
# Molecular target: human CXCR3 (human) (UniProt P49682)
# Assay: cell-based or functional assay
# Chain of UniProt P49682 (P49682 whole entry): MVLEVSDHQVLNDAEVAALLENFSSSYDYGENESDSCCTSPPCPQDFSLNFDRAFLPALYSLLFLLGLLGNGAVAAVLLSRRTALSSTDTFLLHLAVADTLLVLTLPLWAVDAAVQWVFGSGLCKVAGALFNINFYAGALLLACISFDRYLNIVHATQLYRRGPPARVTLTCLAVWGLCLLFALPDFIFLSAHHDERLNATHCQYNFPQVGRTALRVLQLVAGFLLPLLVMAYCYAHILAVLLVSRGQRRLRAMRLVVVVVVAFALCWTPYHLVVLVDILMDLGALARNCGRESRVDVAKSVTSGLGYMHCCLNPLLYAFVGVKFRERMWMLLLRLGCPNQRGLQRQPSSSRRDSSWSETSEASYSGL
Molecule,"phosphorylated ERK1/2 (immunoblot), fold induction over control levels; HMVEC, 2 min. (fold induction over control)","phosphorylated ERK1/2 (immunoblot), fold induction over control levels; HMVEC, 5 min. (fold induction over control)","phosphorylated ERK1/2 (immunoblot), fold induction over control levels; HMVEC, 15 min. (fold induction over control)","phosphorylated ERK1/2 (immunoblot), fold induction over control levels; HUVEC, 2 min. (fold induction over control)","phosphorylated ERK1/2 (immunoblot), fold induction over control levels; HUVEC, 5 min. (fold induction over control)","phosphorylated ERK1/2 (immunoblot), fold induction over control levels; HUVEC, 15 min. (fold induction over control)","phosphorylated ERK1/2 (immunoblot), fold induction over control levels; Pre-B-cells expressing human CXCR3, 2 min. (fold induction over control)","phosphorylated ERK1/2 (immunoblot), fold induction over control levels; Pre-B-cells expressing human CXCR3, 5 min. (fold induction over control)","phosphorylated ERK1/2 (immunoblot), fold induction over control levels; Pre-B-cells expressing human CXCR3, 15 min. (fold induction over control)"
native PF4 with native I-TAC N-loop (ligand),0.915,1.06,3.28,4.13,5.68,9.83,1.57,1.16,0.931
"recombinant human I-TAC (ligand, UniProt O14625 22-94, looked up) C-X-C motif chemokine 11: FPMFKRGRCLCIGPGVKAVKVADIEKASIMYPSNNCDKIEVIITLKENKGQRCLNPKSKQARLIIKKVERKNF",0.205,0.137,3.08,1.65,1.36,1.31,2.24,1.38,1.22

# Other lines, results leading:
"phosphorylated ERK1/2 (immunoblot), fold induction over control levels; HMVEC, 2 min. (fold induction over control)","phosphorylated ERK1/2 (immunoblot), fold induction over control levels; HMVEC, 5 min. (fold induction over control)","phosphorylated ERK1/2 (immunoblot), fold induction over control levels; HMVEC, 15 min. (fold induction over control)","phosphorylated ERK1/2 (immunoblot), fold induction over control levels; HUVEC, 2 min. (fold induction over control)","phosphorylated ERK1/2 (immunoblot), fold induction over control levels; HUVEC, 5 min. (fold induction over control)","phosphorylated ERK1/2 (immunoblot), fold induction over control levels; HUVEC, 15 min. (fold induction over control)","phosphorylated ERK1/2 (immunoblot), fold induction over control levels; Pre-B-cells expressing human CXCR3, 2 min. (fold induction over control)","phosphorylated ERK1/2 (immunoblot), fold induction over control levels; Pre-B-cells expressing human CXCR3, 5 min. (fold induction over control)","phosphorylated ERK1/2 (immunoblot), fold induction over control levels; Pre-B-cells expressing human CXCR3, 15 min. (fold induction over control)",Molecule
0.333,0.07,0.382,10.3,10.8,6.87,1.03,0.921,0.57,recombinant human IP-10 (ligand)
1.56,1.13,1.31,5.35,6.96,5.76,0.795,0.842,1.76,"recombinant human MIG (ligand, UniProt Q07325 23-125, looked up) C-X-C motif chemokine 9: TPVVRKGRCSCISTNQGTIHLQSLKDLKQFAPSPSCEKIEIIATLKNGVQTCLNPDSADVKELIKKWEKQVSQKKKQKNGKKHQKKKVLKVRKSQRSRQKKTT"
1.01,0.895,1.78,6.85,9.63,11.5,1.25,1.33,1.45,"recombinant human PF4 (ligand, UniProt P02776 32-101, looked up) Platelet factor 4: EAEEDGDLQCLCVKTTSQVRPRHITSLEVIKAGPHCPTAQLIATLKNGRKICLDLQAPLYKKIIKKLLES"
